T1: Biotin-FcγRIIB (human, UniProt P31994 43-217, limits assumed, biotin-labelled)
T1 construct: Bought, biotin-labelled; used at 1 µg/ml for staining and sorting; also called human FcγRIIB; CD32b
T1 sequence (looked up): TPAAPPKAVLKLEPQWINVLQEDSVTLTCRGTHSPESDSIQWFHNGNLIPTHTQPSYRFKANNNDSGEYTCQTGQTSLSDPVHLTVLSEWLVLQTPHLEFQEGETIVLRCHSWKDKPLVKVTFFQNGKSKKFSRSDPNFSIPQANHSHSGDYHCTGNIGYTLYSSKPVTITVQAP

T2: Biotin-FcγRIIB (human, UniProt P31994 43-217, limits assumed, biotin label)
T2 construct: Soluble labelled protein used to stain and sort the display cells; also called human FcγRIIB; CD32b
T2 sequence (looked up): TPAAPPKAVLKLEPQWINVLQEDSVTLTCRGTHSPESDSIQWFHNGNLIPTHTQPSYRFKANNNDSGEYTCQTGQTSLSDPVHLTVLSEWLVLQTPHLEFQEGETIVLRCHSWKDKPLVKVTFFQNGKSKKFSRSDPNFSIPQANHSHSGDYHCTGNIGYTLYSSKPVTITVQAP


Experiments:
Biotin-FcγRIIB [1] = molecular target: T1, Biotin-FcγRIIB; experiment: FACS sorting of displayed Fc library on biotin-FcγRIIB, NGS
Biotin-FcγRIIB [2] = molecular target: T1, Biotin-FcγRIIB; experiment: magnetic sorting on biotin-FcγRIIB with unlabelled activating FcγRs, NGS; LibraryMix #4
Experimental: 3T3 cells were collected by trypsin digestion, and a single cell suspension was prepared. […] The cells were incubated for 15 minutes on ice and then washed twice with MACS buffer and re-suspended in 100 μl MACS buffer. Twenty-five μl anti-Biotin magnetic beads were added, and the cells were incubated for 15 minutes on ice and then washed once with MACS buffer and re-suspended to 500 μl, and added to the LS column put in the magnetic field. The effluent was collected, washed with 3 mL of MACS buffer and collected; The LS column was then removed out of the magnetic field, and 5 mL of MACS buffer was used to rapidly elute the remaining cells from the sorting column to collect positive cells, which are the high I/A ratio cells.
The high-FcγRIIB-affinity cells obtained from the above flow cytometry sorting are further sorted by magnetic-activated sorting. The cells are incubated with the mixture of Biotin-labeled FcγRIIB and non-labeled activating FcγRs, and then the labeled cells are sorted by anti-Biotin magnetic beads. The enrichment ratios after sorting relative to before sorting are analyzed by NGS.

Biotin-FcγRIIB [3] = molecular target: T2, Biotin-FcγRIIB; experiment: NGS of 3T3 display library IgG2_C01 flow-sorted for FcγRIIB binding
Source text: Then flow cytometry is used for sorting the cells with high affinity to FcγRIIB for two to three rounds. […] IgG2_C01 is a combined mutation (Type I) library having at most 1 mutation in each of the four regions of P233-V240, V266-P271, S298-T299, and G327-I332; IgG2_C02 is a cell library made by combining the combined mutation (Type II) libraries of four regions of P233-V240, V266-P271, S298-T299 and G327-I332 together and transferring it into 3T3 cells.

Binder | Increased factor b Site 1 (point mutation/wild-type) (Biotin-FcγRIIB [1]) | Increased factor b Site 2 (point mutation/wild-type) (Biotin-FcγRIIB [1]) | Enrichment factor (percentage after sorting/percentage before sorting) (Biotin-FcγRIIB [2]) | Increased factor (mutation enrichment factor/wild-type enrichment factor) (Biotin-FcγRIIB [2]) | Percentage after sorting/unbinding percentage (Biotin-FcγRIIB [2]) | Percentage before sorting/unbinding percentage (Biotin-FcγRIIB [2]) | enrichment factor, percentage after 1st sorting/percentage before sorting (Biotin-FcγRIIB [3]) [ratio] | enrichment factor, percentage after 2nd sorting/percentage after 1st sorting (Biotin-FcγRIIB [3]) [ratio] | enrichment factor, percentage after 2nd sorting/percentage before sorting (Biotin-FcγRIIB [3]) [ratio] | increased factor, mutant enrichment factor/wild-type enrichment factor (Biotin-FcγRIIB [3]) [ratio] | percentage after 1st sorting (Biotin-FcγRIIB [3]) [%] | percentage after 2nd sorting (Biotin-FcγRIIB [3]) [%]
human IgG2 anti-mouse CD40 surface displayed antibody, Fc mutant P271G (antibody, name in EU numbering, as m1; positions are Eu numbers; copies: 2 + 2) light chain (with the P2A rest): DTVLTQSPALAVSPGERVTISCRASDSVSTLMHWYQQKPGQQPKLLIYLASHLESGVPARFSGSGSGTDFTLTIDPVEADDTATYYCQQSWNDPWTFGGGTKLELKRTVAAPSVFIFPPSDEQLKSGTASVVCLLNNFYPREAKVQWKVDNALQSGNSQESVTEQDSKDSTYSLSSTLTLSKADYEKHKVYACEVTHQGLSSPVTKSFNRGECGSGATNFSLLKQAGDVEENPG heavy chain: EVQLVESDGGLVQPGRSLKLPCAASGFTFSDYYMAWVRQAPTKGLEWVASISYDGSSTYYRDSVKGRFTISRDNAKSTLYLQMDSLRSEDTATYYCGRHSSYFDYWGQGVMVTVSSASTKGPSVFPLAPCSRSTSESTAALGCLVKDYFPEPVTVSWNSGALTSGVHTFPAVLQSSGLYSLSSVVTVPSSNFGTQTYTCNVDHKPSNTKVDKTVERKCCVECPPCPAPPVAGPSVFLFPPKPKDTLMISRTPEVTCVVVDVSHEDGEVQFNWYVDGVEVHNAKTKPREEQFNSTFRVVSVLTVVHQDWLNGKEYKCKVSNKGLPAPIEKTISKTKGQPREPQVYTLPPSREEMTKNQVSLTCLVKGFYPSDIAVEWESNGQPENNYKTTPPMLDSDGSFFLYSKLTVDKSRWQQGNVFSCSVMHEALHNHYTQKSLSLSPGKLEPPPSTVSNMATVAVLVVLGAAIVTGAVVAFVMKMRRRNTGGKGGDYALAPGSQTSDLSLPDCKVMVHDPHSLA | 4.7 | 4.7 | 3.66 | 3.89 | 19 | 5.18 |  |  |  |  |  | 
human IgG2 anti-mouse CD40 surface displayed antibody, S267E/S298G (antibody, name in EU numbering, As m1 with the Fc mutations) light chain (with the P2A rest): DTVLTQSPALAVSPGERVTISCRASDSVSTLMHWYQQKPGQQPKLLIYLASHLESGVPARFSGSGSGTDFTLTIDPVEADDTATYYCQQSWNDPWTFGGGTKLELKRTVAAPSVFIFPPSDEQLKSGTASVVCLLNNFYPREAKVQWKVDNALQSGNSQESVTEQDSKDSTYSLSSTLTLSKADYEKHKVYACEVTHQGLSSPVTKSFNRGECGSGATNFSLLKQAGDVEENPG heavy chain: EVQLVESDGGLVQPGRSLKLPCAASGFTFSDYYMAWVRQAPTKGLEWVASISYDGSSTYYRDSVKGRFTISRDNAKSTLYLQMDSLRSEDTATYYCGRHSSYFDYWGQGVMVTVSSASTKGPSVFPLAPCSRSTSESTAALGCLVKDYFPEPVTVSWNSGALTSGVHTFPAVLQSSGLYSLSSVVTVPSSNFGTQTYTCNVDHKPSNTKVDKTVERKCCVECPPCPAPPVAGPSVFLFPPKPKDTLMISRTPEVTCVVVDVEHEDPEVQFNWYVDGVEVHNAKTKPREEQFNGTFRVVSVLTVVHQDWLNGKEYKCKVSNKGLPAPIEKTISKTKGQPREPQVYTLPPSREEMTKNQVSLTCLVKGFYPSDIAVEWESNGQPENNYKTTPPMLDSDGSFFLYSKLTVDKSRWQQGNVFSCSVMHEALHNHYTQKSLSLSPGKLEPPPSTVSNMATVAVLVVLGAAIVTGAVVAFVMKMRRRNTGGKGGDYALAPGSQTSDLSLPDCKVMVHDPHSLA |  |  |  |  |  |  | 9.16 | 19.2 | 176 | 207 | 0.01 | 0.25

Next, values leading:

Increased factor b Site 1 (point mutation/wild-type) (Biotin-FcγRIIB [1]) | Increased factor b Site 2 (point mutation/wild-type) (Biotin-FcγRIIB [1]) | Enrichment factor (percentage after sorting/percentage before sorting) (Biotin-FcγRIIB [2]) | Increased factor (mutation enrichment factor/wild-type enrichment factor) (Biotin-FcγRIIB [2]) | Percentage after sorting/unbinding percentage (Biotin-FcγRIIB [2]) | Percentage before sorting/unbinding percentage (Biotin-FcγRIIB [2]) | enrichment factor, percentage after 1st sorting/percentage before sorting (Biotin-FcγRIIB [3]) [ratio] | enrichment factor, percentage after 2nd sorting/percentage after 1st sorting (Biotin-FcγRIIB [3]) [ratio] | enrichment factor, percentage after 2nd sorting/percentage before sorting (Biotin-FcγRIIB [3]) [ratio] | increased factor, mutant enrichment factor/wild-type enrichment factor (Biotin-FcγRIIB [3]) [ratio] | percentage after 1st sorting (Biotin-FcγRIIB [3]) [%] | percentage after 2nd sorting (Biotin-FcγRIIB [3]) [%] | Binder
28.5 |  | 2.86 | 3.04 | 52.6 | 18.4 |  |  |  |  |  |  | human IgG2 anti-mouse CD40 surface displayed antibody, Fc mutant S267E (antibody, name in EU numbering, as m1; positions are Eu numbers; copies: 2 + 2) light chain (with the P2A rest): DTVLTQSPALAVSPGERVTISCRASDSVSTLMHWYQQKPGQQPKLLIYLASHLESGVPARFSGSGSGTDFTLTIDPVEADDTATYYCQQSWNDPWTFGGGTKLELKRTVAAPSVFIFPPSDEQLKSGTASVVCLLNNFYPREAKVQWKVDNALQSGNSQESVTEQDSKDSTYSLSSTLTLSKADYEKHKVYACEVTHQGLSSPVTKSFNRGECGSGATNFSLLKQAGDVEENPG heavy chain: EVQLVESDGGLVQPGRSLKLPCAASGFTFSDYYMAWVRQAPTKGLEWVASISYDGSSTYYRDSVKGRFTISRDNAKSTLYLQMDSLRSEDTATYYCGRHSSYFDYWGQGVMVTVSSASTKGPSVFPLAPCSRSTSESTAALGCLVKDYFPEPVTVSWNSGALTSGVHTFPAVLQSSGLYSLSSVVTVPSSNFGTQTYTCNVDHKPSNTKVDKTVERKCCVECPPCPAPPVAGPSVFLFPPKPKDTLMISRTPEVTCVVVDVEHEDPEVQFNWYVDGVEVHNAKTKPREEQFNSTFRVVSVLTVVHQDWLNGKEYKCKVSNKGLPAPIEKTISKTKGQPREPQVYTLPPSREEMTKNQVSLTCLVKGFYPSDIAVEWESNGQPENNYKTTPPMLDSDGSFFLYSKLTVDKSRWQQGNVFSCSVMHEALHNHYTQKSLSLSPGKLEPPPSTVSNMATVAVLVVLGAAIVTGAVVAFVMKMRRRNTGGKGGDYALAPGSQTSDLSLPDCKVMVHDPHSLA
 |  | 4.85 | 5.16 | 6.17 | 1.27 |  |  |  |  |  |  | human IgG2 anti-mouse CD40 surface displayed antibody, Fc mutant S267E/P329R (antibody, name in EU numbering, as m1; positions are Eu numbers; copies: 2 + 2) light chain (with the P2A rest): DTVLTQSPALAVSPGERVTISCRASDSVSTLMHWYQQKPGQQPKLLIYLASHLESGVPARFSGSGSGTDFTLTIDPVEADDTATYYCQQSWNDPWTFGGGTKLELKRTVAAPSVFIFPPSDEQLKSGTASVVCLLNNFYPREAKVQWKVDNALQSGNSQESVTEQDSKDSTYSLSSTLTLSKADYEKHKVYACEVTHQGLSSPVTKSFNRGECGSGATNFSLLKQAGDVEENPG heavy chain: EVQLVESDGGLVQPGRSLKLPCAASGFTFSDYYMAWVRQAPTKGLEWVASISYDGSSTYYRDSVKGRFTISRDNAKSTLYLQMDSLRSEDTATYYCGRHSSYFDYWGQGVMVTVSSASTKGPSVFPLAPCSRSTSESTAALGCLVKDYFPEPVTVSWNSGALTSGVHTFPAVLQSSGLYSLSSVVTVPSSNFGTQTYTCNVDHKPSNTKVDKTVERKCCVECPPCPAPPVAGPSVFLFPPKPKDTLMISRTPEVTCVVVDVEHEDPEVQFNWYVDGVEVHNAKTKPREEQFNSTFRVVSVLTVVHQDWLNGKEYKCKVSNKGLRAPIEKTISKTKGQPREPQVYTLPPSREEMTKNQVSLTCLVKGFYPSDIAVEWESNGQPENNYKTTPPMLDSDGSFFLYSKLTVDKSRWQQGNVFSCSVMHEALHNHYTQKSLSLSPGKLEPPPSTVSNMATVAVLVVLGAAIVTGAVVAFVMKMRRRNTGGKGGDYALAPGSQTSDLSLPDCKVMVHDPHSLA
 |  |  |  |  |  | 1.75 | 4.26 | 7.46 | 8.78 | 0.25 | 1.05 | human IgG2 anti-mouse CD40 surface displayed antibody, L328W (antibody, name in EU numbering, As m1 with the Fc mutation) light chain (with the P2A rest): DTVLTQSPALAVSPGERVTISCRASDSVSTLMHWYQQKPGQQPKLLIYLASHLESGVPARFSGSGSGTDFTLTIDPVEADDTATYYCQQSWNDPWTFGGGTKLELKRTVAAPSVFIFPPSDEQLKSGTASVVCLLNNFYPREAKVQWKVDNALQSGNSQESVTEQDSKDSTYSLSSTLTLSKADYEKHKVYACEVTHQGLSSPVTKSFNRGECGSGATNFSLLKQAGDVEENPG heavy chain: EVQLVESDGGLVQPGRSLKLPCAASGFTFSDYYMAWVRQAPTKGLEWVASISYDGSSTYYRDSVKGRFTISRDNAKSTLYLQMDSLRSEDTATYYCGRHSSYFDYWGQGVMVTVSSASTKGPSVFPLAPCSRSTSESTAALGCLVKDYFPEPVTVSWNSGALTSGVHTFPAVLQSSGLYSLSSVVTVPSSNFGTQTYTCNVDHKPSNTKVDKTVERKCCVECPPCPAPPVAGPSVFLFPPKPKDTLMISRTPEVTCVVVDVSHEDPEVQFNWYVDGVEVHNAKTKPREEQFNSTFRVVSVLTVVHQDWLNGKEYKCKVSNKGWPAPIEKTISKTKGQPREPQVYTLPPSREEMTKNQVSLTCLVKGFYPSDIAVEWESNGQPENNYKTTPPMLDSDGSFFLYSKLTVDKSRWQQGNVFSCSVMHEALHNHYTQKSLSLSPGKLEPPPSTVSNMATVAVLVVLGAAIVTGAVVAFVMKMRRRNTGGKGGDYALAPGSQTSDLSLPDCKVMVHDPHSLA

From patent US20230220042A1 (SHANGHAI JIAO TONG UNIVERSITY SCHOOL OF MEDICINE, published 2023)
